Assay [1] has as its target complex I from ndufs4-/- mouse (heart, kidney) (mouse) (UniProt Q91YT0). Kind of assay: cryo-EM structure; complex I purified whole from ndufs4-/- mouse heart, cross-linked twice with BS3 (0.25 mM during solubilisation, 2.5 mM before the grids), 0.05% DDM, PEGylated gold grids; focused classification into three classes.
The target of a further assay is T1, ACADVL (mouse), P50544.
T1 chain: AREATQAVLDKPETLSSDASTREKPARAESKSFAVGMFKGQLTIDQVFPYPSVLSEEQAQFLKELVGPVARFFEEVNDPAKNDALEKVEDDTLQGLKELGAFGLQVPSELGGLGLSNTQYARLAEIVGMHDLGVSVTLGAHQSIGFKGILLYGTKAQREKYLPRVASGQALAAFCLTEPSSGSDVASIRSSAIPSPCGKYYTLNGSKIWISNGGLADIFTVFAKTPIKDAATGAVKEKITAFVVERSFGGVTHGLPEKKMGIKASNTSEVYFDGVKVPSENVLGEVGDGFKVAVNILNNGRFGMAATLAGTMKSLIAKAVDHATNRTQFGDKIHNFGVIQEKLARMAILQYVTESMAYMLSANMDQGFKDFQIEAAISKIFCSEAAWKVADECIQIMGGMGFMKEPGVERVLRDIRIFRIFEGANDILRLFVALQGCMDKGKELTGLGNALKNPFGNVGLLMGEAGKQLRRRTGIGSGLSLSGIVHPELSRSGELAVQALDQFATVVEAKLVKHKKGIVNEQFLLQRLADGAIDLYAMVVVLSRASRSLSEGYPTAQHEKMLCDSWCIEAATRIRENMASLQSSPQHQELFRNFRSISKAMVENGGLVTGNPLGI
The description is as above. The following applies: remark: other sources report otherwise.

UniProt Q91YT0, sequence (Q91YT0 whole entry, looked up, one chain of several): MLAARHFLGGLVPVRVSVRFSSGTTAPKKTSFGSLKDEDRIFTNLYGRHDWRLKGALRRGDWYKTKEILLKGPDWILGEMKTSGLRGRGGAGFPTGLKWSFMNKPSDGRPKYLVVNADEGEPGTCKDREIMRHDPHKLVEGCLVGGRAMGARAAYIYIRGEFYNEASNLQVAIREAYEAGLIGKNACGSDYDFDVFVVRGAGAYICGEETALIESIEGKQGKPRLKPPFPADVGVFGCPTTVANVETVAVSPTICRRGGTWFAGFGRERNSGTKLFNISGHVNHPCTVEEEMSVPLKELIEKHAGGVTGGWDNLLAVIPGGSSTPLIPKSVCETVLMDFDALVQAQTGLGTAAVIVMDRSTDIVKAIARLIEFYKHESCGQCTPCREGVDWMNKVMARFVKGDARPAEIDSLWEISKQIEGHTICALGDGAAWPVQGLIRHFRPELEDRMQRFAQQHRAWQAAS

The molecule “assembly factor NDUFAF2 (natural protein)” registered a percent of the complex I particles that contain it in assay [1] of 14%.

B1: ACADVL, P50544 42-656 (natural protein)
chain: T1 chain
The molecule B1 came in with a stoichiometry N with ACADVL (mouse), P50544 of 2.

The record behind these values is publication PMC10897435.
